Measured values published in publication PMC9676983.

Columns and labels:
Assay in all cases: SEC
α-synuclein A30P = α-synuclein A30P (UniProt P37840)
α-synuclein A53T = α-synuclein A53T (UniProt P37840)
α-synuclein E46K = α-synuclein E46K (UniProt P37840)

α-synuclein A30P (from UniProt P37840 1-140) (natural protein)
fraction of oligomers (α-synuclein A30P): 71.6%

α-synuclein A53T (from UniProt P37840 1-140) (natural protein)
fraction of oligomers (α-synuclein A53T): 87.8%

α-synuclein E46K (from UniProt P37840 1-140) (natural protein)
fraction of oligomers (α-synuclein E46K): 92.1%
